Molecular target: the molecule itself
Assay: SEC

B1: FMNL1_(1–385) (domain or fragment, human, UniProt O95466 1-385, looked up)
chain: MGNAAGSAEQPAGPAAPPPKQPAPPKQPMPAAGELEERFNRALNCMNLPPDKVQLLSQYDNEKKWELICDQERFQVKNPPAAYIQKLKSYVDTGGVSRKVAADWMSNLGFKRRVQESTQVLRELETSLRTNHIGWVQEFLNEENRGLDVLLEYLAFAQCSVTYDMESTDNGASNSEKNKPLEQSVEDLSKGPPSSVPKSRHLTIKLTPAHSRKALRNSRIVSQKDDVHVCIMCLRAIMNYQSGFSLVMNHPACVNEIALSLNNKNPRTKALVLELLAAVCLVRGGHDIILAAFDNFKEVCGEQHRFEKLMEYFRNEDSNIDFMVACMQFINIVVHSVENMNFRVFLQYEFTHLGLDLYLERLRLTESDKLQVQIQAYLDNIFDVG
B1: binds.

Reference: publication PMC8561747 (Cell host & microbe, 2021)
